These are literature values, as cited in article PMC2845642.

Where two headings read alike, the source gives them in different places.

Series [1] has as its target CD28 (Homo sapiens) (UniProt P10747).
Series [2] shares this target. The source holds these as a separate data set.

The Kd is the concentration at which binding is half-saturated. Turning to CD80 (from UniProt P33681), the Kd in the series with CD28 (Homo sapiens) [1] is 4 µM.
CD86 (from UniProt P42081): in the series with CD28 (Homo sapiens) [2], the Kd was 20 µM.
